In patent US20230151068A1:

B1: K09T variant of SEQ ID NO: 1 (designed binder)
chain: GSPDEYIERATECCKKGDIQCCLRYFEESGDPNVMLICLFCP
B2: E03A variant of SEQ ID NO: 1 (designed binder)
chain: GSPDAYIERAKECCKKGDIQCCLRYFEESGDPNVMLICLFCP
B3: Y04L variant of SEQ ID NO: 1 (designed binder)
chain: GSPDELIERAKECCKKGDIQCCLRYFEESGDPNVMLICLFCP
B4: D02F variant of SEQ ID NO: 1 (designed binder)
chain: GSPFEYIERAKECCKKGDIQCCLRYFEESGDPNVMLICLFCP
B5: I05V variant of SEQ ID NO: 1 (designed binder)
chain: GSPDEYVERAKECCKKGDIQCCLRYFEESGDPNVMLICLFCP
B6: D02V variant of SEQ ID NO: 1 (designed binder)
chain: GSPVEYIERAKECCKKGDIQCCLRYFEESGDPNVMLICLFCP
B7: A08L variant of SEQ ID NO: 1 (designed binder)
chain: GSPDEYIERLKECCKKGDIQCCLRYFEESGDPNVMLICLFCP
B8: Y04W variant of SEQ ID NO: 1 (designed binder)
chain: GSPDEWIERAKECCKKGDIQCCLRYFEESGDPNVMLICLFCP
B9: A08I variant of SEQ ID NO: 1 (designed binder)
chain: GSPDEYIERIKECCKKGDIQCCLRYFEESGDPNVMLICLFCP
B10: P01I variant of SEQ ID NO: 1 (designed binder)
chain: GSIDEYIERAKECCKKGDIQCCLRYFEESGDPNVMLICLFCP
B11: E06F variant of SEQ ID NO: 1 (designed binder)
chain: GSPDEYIFRAKECCKKGDIQCCLRYFEESGDPNVMLICLFCP
B12: E03L variant of SEQ ID NO: 1 (designed binder)
chain: GSPDLYIERAKECCKKGDIQCCLRYFEESGDPNVMLICLFCP
B13: D02A variant of SEQ ID NO: 1 (designed binder)
chain: GSPAEYIERAKECCKKGDIQCCLRYFEESGDPNVMLICLFCP
B14: E03F variant of SEQ ID NO: 1 (designed binder)
chain: GSPDFYIERAKECCKKGDIQCCLRYFEESGDPNVMLICLFCP
B15: A08V variant of SEQ ID NO: 1 (designed binder)
chain: GSPDEYIERVKECCKKGDIQCCLRYFEESGDPNVMLICLFCP
B16: K09A variant of SEQ ID NO: 1 (designed binder)
chain: GSPDEYIERAAECCKKGDIQCCLRYFEESGDPNVMLICLFCP
B17: P01W variant of SEQ ID NO: 1 (designed binder)
chain: GSWDEYIERAKECCKKGDIQCCLRYFEESGDPNVMLICLFCP
B18: E10F variant of SEQ ID NO: 1 (designed binder)
chain: GSPDEYIERAKFCCKKGDIQCCLRYFEESGDPNVMLICLFCP
B19: R07I variant of SEQ ID NO: 1 (designed binder)
chain: GSPDEYIEIAKECCKKGDIQCCLRYFEESGDPNVMLICLFCP
B20: R07A variant of SEQ ID NO: 1 (designed binder)
chain: GSPDEYIEAAKECCKKGDIQCCLRYFEESGDPNVMLICLFCP
B21: Y04A variant of SEQ ID NO: 1 (designed binder)
chain: GSPDEAIERAKECCKKGDIQCCLRYFEESGDPNVMLICLFCP
B22: A08F variant of SEQ ID NO: 1 (designed binder)
chain: GSPDEYIERFKECCKKGDIQCCLRYFEESGDPNVMLICLFCP
B23: D02W variant of SEQ ID NO: 1 (designed binder)
chain: GSPWEYIERAKECCKKGDIQCCLRYFEESGDPNVMLICLFCP
B24: Y04I variant of SEQ ID NO: 1 (designed binder)
chain: GSPDEIIERAKECCKKGDIQCCLRYFEESGDPNVMLICLFCP
B25: E06V variant of SEQ ID NO: 1 (designed binder)
chain: GSPDEYIVRAKECCKKGDIQCCLRYFEESGDPNVMLICLFCP
B26: D02I variant of SEQ ID NO: 1 (designed binder)
chain: GSPIEYIERAKECCKKGDIQCCLRYFEESGDPNVMLICLFCP
B27: E10L variant of SEQ ID NO: 1 (designed binder)
chain: GSPDEYIERAKLCCKKGDIQCCLRYFEESGDPNVMLICLFCP
B28: D02L variant of SEQ ID NO: 1 (designed binder)
chain: GSPLEYIERAKECCKKGDIQCCLRYFEESGDPNVMLICLFCP
B29: Y04F variant of SEQ ID NO: 1 (designed binder)
chain: GSPDEFIERAKECCKKGDIQCCLRYFEESGDPNVMLICLFCP
B30: K09F variant of SEQ ID NO: 1 (designed binder)
chain: GSPDEYIERAFECCKKGDIQCCLRYFEESGDPNVMLICLFCP
B31: E10I variant of SEQ ID NO: 1 (designed binder)
chain: GSPDEYIERAKICCKKGDIQCCLRYFEESGDPNVMLICLFCP
B32: E06A variant of SEQ ID NO: 1 (designed binder)
chain: GSPDEYIARAKECCKKGDIQCCLRYFEESGDPNVMLICLFCP
B33: R07L variant of SEQ ID NO: 1 (designed binder)
chain: GSPDEYIELAKECCKKGDIQCCLRYFEESGDPNVMLICLFCP
B34: I05L variant of SEQ ID NO: 1 (designed binder)
chain: GSPDEYLERAKECCKKGDIQCCLRYFEESGDPNVMLICLFCP
B35: K09L variant of SEQ ID NO: 1 (designed binder)
chain: GSPDEYIERALECCKKGDIQCCLRYFEESGDPNVMLICLFCP
B36: I05A variant of SEQ ID NO: 1 (designed binder)
chain: GSPDEYAERAKECCKKGDIQCCLRYFEESGDPNVMLICLFCP
B37: E03V variant of SEQ ID NO: 1 (designed binder)
chain: GSPDVYIERAKECCKKGDIQCCLRYFEESGDPNVMLICLFCP
B38: R07V variant of SEQ ID NO: 1 (designed binder)
chain: GSPDEYIEVAKECCKKGDIQCCLRYFEESGDPNVMLICLFCP
B39: R07F variant of SEQ ID NO: 1 (designed binder)
chain: GSPDEYIEFAKECCKKGDIQCCLRYFEESGDPNVMLICLFCP
B40: K09V variant of SEQ ID NO: 1 (designed binder)
chain: GSPDEYIERAVECCKKGDIQCCLRYFEESGDPNVMLICLFCP
B41: K09I variant of SEQ ID NO: 1 (designed binder)
chain: GSPDEYIERAIECCKKGDIQCCLRYFEESGDPNVMLICLFCP
B42: E03W variant of SEQ ID NO: 1 (designed binder)
chain: GSPDWYIERAKECCKKGDIQCCLRYFEESGDPNVMLICLFCP
B43: E06L variant of SEQ ID NO: 1 (designed binder)
chain: GSPDEYILRAKECCKKGDIQCCLRYFEESGDPNVMLICLFCP
B44: E10V variant of SEQ ID NO: 1 (designed binder)
chain: GSPDEYIERAKVCCKKGDIQCCLRYFEESGDPNVMLICLFCP
B45: I05F variant of SEQ ID NO: 1 (designed binder)
chain: GSPDEYFERAKECCKKGDIQCCLRYFEESGDPNVMLICLFCP
B46: Y04V variant of SEQ ID NO: 1 (designed binder)
chain: GSPDEVIERAKECCKKGDIQCCLRYFEESGDPNVMLICLFCP
B47: E06I variant of SEQ ID NO: 1 (designed binder)
chain: GSPDEYIIRAKECCKKGDIQCCLRYFEESGDPNVMLICLFCP
B48: P01A variant of SEQ ID NO: 1 (designed binder)
chain: GSADEYIERAKECCKKGDIQCCLRYFEESGDPNVMLICLFCP
B49: E10T variant of SEQ ID NO: 1 (designed binder)
chain: GSPDEYIERAKTCCKKGDIQCCLRYFEESGDPNVMLICLFCP
B50: P01V variant of SEQ ID NO: 1 (designed binder)
chain: GSVDEYIERAKECCKKGDIQCCLRYFEESGDPNVMLICLFCP
B51: P01L variant of SEQ ID NO: 1 (designed binder)
chain: GSLDEYIERAKECCKKGDIQCCLRYFEESGDPNVMLICLFCP
B52: I05W variant of SEQ ID NO: 1 (designed binder)
chain: GSPDEYWERAKECCKKGDIQCCLRYFEESGDPNVMLICLFCP
B53: E10A variant of SEQ ID NO: 1 (designed binder)
chain: GSPDEYIERAKACCKKGDIQCCLRYFEESGDPNVMLICLFCP
B54: E06W variant of SEQ ID NO: 1 (designed binder)
chain: GSPDEYIWRAKECCKKGDIQCCLRYFEESGDPNVMLICLFCP
B55: E03I variant of SEQ ID NO: 1 (designed binder)
chain: GSPDIYIERAKECCKKGDIQCCLRYFEESGDPNVMLICLFCP
B56: P01F variant of SEQ ID NO: 1 (designed binder)
chain: GSFDEYIERAKECCKKGDIQCCLRYFEESGDPNVMLICLFCP

Target: biotinylated His-Avi-TEAD (194-411) (UniProt P28347)
Assay: SSM screen, enrichment after two rounds of sorting

| enrichment score | Binder |
| --- | --- |
| 2.68 | B1 |
| -2.02 | B2 |
| -1.81 | B3 |
| -3.41 | B4 |
| -0.27 | B5 |
| -2.34 | B6 |
| -9.93 | B7 |
| -2.47 | B8 |
| -8.31 | B9 |
| -2.27 | B10 |
| -1.96 | B11 |
| 0.32 | B12 |
| -1.43 | B13 |
| 0.32 | B14 |
| -4.43 | B15 |
| -1.27 | B16 |
| -9.1 | B17 |
| -1.6 | B18 |
| -3.98 | B19 |

| enrichment score | Binder |
| --- | --- |
| 0.28 | B20 |
| 0.26 | B21 |
| -4.33 | B22 |
| -2.95 | B23 |
| -0.41 | B24 |
| -1.55 | B25 |
| -0.7 | B26 |
| -1.83 | B27 |
| -3.53 | B28 |
| 0.67 | B29 |
| -3.52 | B30 |
| -0.65 | B31 |
| -0.68 | B32 |
| -0.39 | B33 |
| -0.38 | B34 |
| -11.2 | B35 |
| -1.2 | B36 |
| -1.39 | B37 |
| -2.31 | B38 |

| enrichment score | Binder |
| --- | --- |
| -1.04 | B39 |
| -8.88 | B40 |
| -3.03 | B41 |
| -1.4 | B42 |
| -0.4 | B43 |
| -1.77 | B44 |
| -8.36 | B45 |
| -0.75 | B46 |
| -1.56 | B47 |
| 0.36 | B48 |
| -1.57 | B49 |
| -0.59 | B50 |
| -2.9 | B51 |
| -7.46 | B52 |
| -0.24 | B53 |
| -1.53 | B54 |
| -0.26 | B55 |
| -1.3 | B56 |
